Results published in patent publication US20170240629A1 (Hoffmann-La Roche, published 2017).
Like-named read-outs stand apart in the source and are kept apart here.

Legend:
[1] = biological target: T1, human ANG2-RBD-mouse Fc-region fusion (human, UniProt O15123 275-496, limits assumed); test: SPR (BIAcore T200); ANG2-RBD-mouse Fc captured, antibody injected (Example 52)
T1 construct: domain: RBD; also called human ANG2-RBD-murine Fc-region fusion; not shown: mouse Fc-region
T1 sequence (looked up): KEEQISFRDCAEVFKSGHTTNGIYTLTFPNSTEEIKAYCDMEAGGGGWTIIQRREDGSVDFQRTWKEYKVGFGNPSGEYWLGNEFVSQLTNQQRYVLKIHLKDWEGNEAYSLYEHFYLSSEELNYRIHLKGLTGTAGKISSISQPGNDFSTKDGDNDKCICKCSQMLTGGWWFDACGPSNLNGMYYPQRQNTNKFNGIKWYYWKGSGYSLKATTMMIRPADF

human PDGF-BB [2] = biological target: T2, human PDGF-BB (human, UniProt P01127 82-190); test: cell-based or functional assay
human PDGF-BB [3] = biological target: T2, human PDGF-BB; test: SPR (BIAcore T200); PDGF-BB coupled on CM3 chip, antibody injected (Example 52); parameters: t½: unit not given here
human PDGF-BB [4] = biological target: T2, human PDGF-BB; test: cell-based or functional assay; remark: listed apart in the source
ANG2 = biological target: T3, ANG2 (UniProt O15123 68-496, limits assumed); test: cell-based or functional assay
T3 sequence (looked up): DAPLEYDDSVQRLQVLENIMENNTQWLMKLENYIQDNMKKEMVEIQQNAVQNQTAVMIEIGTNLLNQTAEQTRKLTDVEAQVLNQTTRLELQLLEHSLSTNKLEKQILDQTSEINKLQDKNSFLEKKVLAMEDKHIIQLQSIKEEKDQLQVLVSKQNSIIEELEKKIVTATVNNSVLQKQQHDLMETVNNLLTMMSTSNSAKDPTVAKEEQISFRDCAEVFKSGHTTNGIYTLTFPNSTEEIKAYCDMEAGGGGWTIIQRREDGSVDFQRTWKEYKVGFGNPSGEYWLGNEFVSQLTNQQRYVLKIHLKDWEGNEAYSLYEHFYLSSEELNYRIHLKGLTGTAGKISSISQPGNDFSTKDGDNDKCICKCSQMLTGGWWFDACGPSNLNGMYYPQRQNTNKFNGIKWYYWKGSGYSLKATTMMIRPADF

human IL-1beta [5] = biological target: T4, human IL-1beta (human, UniProt P01584 117-269); test: SPR (BIAcore); antibody captured by anti-Fc, IL-1beta injected
cynomolgus IL-1beta [6] = biological target: T5, cynomolgus IL-1beta (cynomolgus, UniProt P79182 117-268); test: as above
human IL-1beta [7] = biological target: T4, human IL-1beta; test: as above; remark: listed apart in the source
Description: (§1) All experiments were performed at 25° C. using HBS-P (10 mM His, 140 mM NaCl, 0.05% Tween 20 pH 7.4) as running and dilution buffer. Anti-human or anti-mouse Fc antibodies were immobilized on a Series S CM5 Sensor Chip (GE Healthcare) using standard amine coupling chemistry. […] The dissociation phase was monitored for 600 sec by washing with running buffer. […] The surface was regenerated by injecting 3 M MgCl2 (for anti-human Fc antibody) or 10 mM Glycine pH 1.5 (for anti-mouse Fc antibody) for 60 sec at a flow rate of 5 μl/min. Bulk refractive index differences were corrected by subtracting the response obtained from a mock surface. Blank injections were subtracted (double referencing). The derived curves were fitted to a 1:1 Langmuir binding model using the BIAevaluation software.

cynomolgus IL-1beta [8] = biological target: T5, cynomolgus IL-1beta; test: as above; remark: listed apart in the source
Description: as §1

human IL-1beta [9] = biological target: T4, human IL-1beta; test: cell-based or functional assay
human IL-1beta [10] = biological target: T4, human IL-1beta; test: cell-based or functional assay; remark: listed apart in the source
human IL-1beta [11] = biological target: T4, human IL-1beta; test: cell-based or functional assay; remark: listed apart in the source
human IL-1beta [12] = biological target: T4, human IL-1beta; test: cell-based or functional assay; remark: listed apart in the source
human IL-1beta [13] = biological target: T4, human IL-1beta; test: SPR inhibition; 10 nM human IL-1beta pre-incubated with antibody, injected over immobilised human IL-1RI (competitor)
Description: All experiments were performed at 25° C. using HBS-P (10 mM His, 140 mM NaCl, 0.05% Tween 20 pH 7.4) as running and dilution buffer. Human IL-1RI was immobilized on a Series S CM5 Sensor Chip (GE Healthcare) using standard amine coupling chemistry. […] The surface was regenerated by injecting 10 mM NaOH for 60 sec at a flow rate of 5 μl/min. Bulk refractive index differences were corrected by subtracting the response obtained from a mock surface.

human IL-1beta [14] = biological target: T4, human IL-1beta; test: cell-based or functional assay; remark: listed apart in the source

T2 sequence (P01127 82-190 limits assumed): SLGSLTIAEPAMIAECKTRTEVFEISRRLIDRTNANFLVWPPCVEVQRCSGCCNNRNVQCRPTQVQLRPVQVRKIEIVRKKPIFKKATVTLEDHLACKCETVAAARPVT

B1: antibody 0144 (bispecific antibody, human IgG1, kappa, L234A L235A)
chain 1: SYVLTQPPSVSVAPGQTARITCGGNNIGSKSVHWYQQKPGQAPVLVVYDTSDRPSGIPERFSGSNSGNTATLTISRVEAGDEADYYCQVWDSSSDHWVFGGGTKLTVLSSASTKGPSVFPLAPSSKSTSGGTAALGCLVKDYFPEPVTVSWNSGALTSGVHTFPAVLQSSGLYSLSSVVTVPSSSLGTQTYICNVNHKPSNTKVDKKVEPKSCDKTHTCPPCPAPEAAGGPSVFLFPPKPKDTLMASRTPEVTCVVVDVSHEDPEVKFNWYVDGVEVHNAKTKPREEQYNSTYRVVSVLTVLAQDWLNGKEYKCKVSNKALGAPIEKTISKAKGQPREPQVYTLPPCRDELTKNQVSLWCLVKGFYPSDIAVEWESNGQPENNYKTTPPVLDSDGSFFLYSKLTVDKSRWQQGNVFSCSVMHEALHNAYTQKSLSLSPGK
chain 2: not shown
chain 3: not shown
chain 4: not shown
notes: also called anti-PDGF-B/ANG2 antibody; clone 0144-0004
Q: What does the source list for B1?
A: Kd [1]: 17 nM; koff [1]: 0.00155 s⁻¹; kon [1]: 90600 M⁻¹ s⁻¹; t½ [1]: 7.43 min; IC50 Migration-Inhibition human pericytes (human PDGF-BB [2]): 0.06 nM; IC50 Phospho-Inhibition human pericytes (human PDGF-BB [2]): 0.055 nM; Kd (human PDGF-BB [3]): 3 nM; koff (human PDGF-BB [3]): 0.000215 s⁻¹; kon (human PDGF-BB [3]): 83100 M⁻¹ s⁻¹; t½ (human PDGF-BB [3]): 53; IC50 Proliferation 3T3 (human PDGF-BB [4]): 0.02 nM; IC50 Proliferation human pericytes (human PDGF-BB [4]): 0.03 nM; ANG2 specific pTie2-ELISA, activity against the anti-ANG2/VEGF antibody reported in WO 2014/09465 (ANG2): 6 fold

B2: H34 + C52aS mutations (antibody, V domains shown)
VH: EVQLQQSGPELVKTGASVKISCKASGYSFTGYYMHWVKQSHGKSLEWIGYISSYNAFTTYNQRFRGKATFTVDTSSSTAYMQFNSLTSEDSAVYYCVRSDYYGTSLYWGQGTTLTVSS
VL: QIVLTQSPAIMSASLGEEITLTCSASSSVSYMHWSQQKSGSSPKLLIYSTSNLASGVPSRFSGSGSGTFYSLTISSVEAEDAADYYCHQWSNYYTFGGGTKLEIK
Q: B2 was tested. Which Kd (human IL-1beta [5]) did it give?
A: Its Kd is 0.4 nM.

Q: And the koff (human IL-1beta [5])?
A: The koff was 0.000645 s⁻¹.

Q: And the kon (human IL-1beta [5])?
A: The kon was 1.6e+06 M⁻¹ s⁻¹.

Q: What about the Kd (cynomolgus IL-1beta [6]) of the same binder?
A: The Kd was 0.51 nM.

Q: And the koff (cynomolgus IL-1beta [6])?
A: Its koff is 0.000728 s⁻¹.

Q: What about the kon (cynomolgus IL-1beta [6]) of the same binder?
A: Its kon is 1.43e+06 M⁻¹ s⁻¹.

Q: What about the Kd (human IL-1beta [7]) of the same binder?
A: Its Kd is 0.4 nM.

Q: What about the koff (human IL-1beta [7]) of the same binder?
A: Its koff is 0.000645 s⁻¹.

Q: And the kon (human IL-1beta [7])?
A: The kon was 1.6e+06 M⁻¹ s⁻¹.

Q: And the Kd (cynomolgus IL-1beta [8])?
A: Its Kd is 0.51 nM.

Q: What about the koff (cynomolgus IL-1beta [8]) of the same binder?
A: The koff was 0.000728 s⁻¹.

Q: And the kon (cynomolgus IL-1beta [8])?
A: Its kon is 1.43e+06 M⁻¹ s⁻¹.

B3: antibody 0085 FAB (Fab, V domains shown)
VH: EVQLVESGGGLVQPGGSLRLSCAASGFTFSSYWMSWVRQAPEKGLEWVSTISDGGGLTYYADSVKGRFTISRDNAKNSLYLQMNSLRAEDTAVYYCAESGGYTDWLFGYWGQGTLVTVSS
VL: not shown
Q: Which results are given for B3?
A: IC50 Migration-Inhibition human pericytes (human PDGF-BB [2]): 0.27 nM; IC50 Proliferation human pericytes (human PDGF-BB [4]): 0.012 nM

B4: Canakinumab (antibody, V domains shown)
VH: QVQLVESGGGVVQPGRSLRLSCAASGFTFSVYGMNWVRQAPGKGLEWVAIIWYDGDNQYYADSVKGRFTISRDNSKNTLYLQMNGLRAEDTAVYYCARDLRTGPFDYWGQGTLVTVSS
VL: EIVLTQSPDFQSVTPKEKVTITCRASQSIGSSLHWYQQKPDQSPKLLIKYASQSFSGVPSRFSGSGSGTDFTLTINSLEAEDAAAYYCHQSSSLPFTFGPGTKVDIKR
Q: Which results are given for B4?
A: IC50, inhibition of ICAM-1 expression upon IL-1beta stimulation of HUVEC cells (human IL-1beta [9]): 9.02 nM; IC50, inhibition of ICAM-1 expression upon IL-1beta stimulation of A549 cells (human IL-1beta [10]): 0.31 nM; EC50, reduction of IL-6 expression upon IL-1beta stimulation of A549 cells (human IL-1beta [11]): 0.12 nM; Kd (human IL-1beta [7]): 0.02 nM; koff (human IL-1beta [7]): 5.2e-05 s⁻¹; kon (human IL-1beta [7]): 2.78e+06 M⁻¹ s⁻¹; Kd (cynomolgus IL-1beta [8]): 13.2 nM; koff (cynomolgus IL-1beta [8]): 0.0284 s⁻¹; kon (cynomolgus IL-1beta [8]): 2.15e+06 M⁻¹ s⁻¹; IC50, inhibition of proliferation of D10 cells (human IL-1beta [12]): 1.99 nM; IC50 (human IL-1beta [13]): 1.6 nM; EC50, reduction of IL-6 expression upon IL-1beta stimulation of A549 cells (human IL-1beta [14]): 0.0864 µg/mL
